Usually Kd stands for the free concentration of one partner at which half of the binding sites on the other are occupied at equilibrium, for simple one-to-one binding. A low value points to higher affinity.

This note sets out measurements from publication PMC6713926 (2019).

Numbering of substitutions follows the chain as printed. Numbers in names are those of the source.

This assay has as its target Biotinylated C3b (human, UniProt P01024 23-667; P01024 749-1663, biotin (Maleimide-PEG2-Biotin)). Briefly: BLI. In general terms: Biolayer interferometry detects binding as a change in optical thickness at a sensor tip.

Biotinylated C3b, sequence (P01024 23-667, chain 1 of 2): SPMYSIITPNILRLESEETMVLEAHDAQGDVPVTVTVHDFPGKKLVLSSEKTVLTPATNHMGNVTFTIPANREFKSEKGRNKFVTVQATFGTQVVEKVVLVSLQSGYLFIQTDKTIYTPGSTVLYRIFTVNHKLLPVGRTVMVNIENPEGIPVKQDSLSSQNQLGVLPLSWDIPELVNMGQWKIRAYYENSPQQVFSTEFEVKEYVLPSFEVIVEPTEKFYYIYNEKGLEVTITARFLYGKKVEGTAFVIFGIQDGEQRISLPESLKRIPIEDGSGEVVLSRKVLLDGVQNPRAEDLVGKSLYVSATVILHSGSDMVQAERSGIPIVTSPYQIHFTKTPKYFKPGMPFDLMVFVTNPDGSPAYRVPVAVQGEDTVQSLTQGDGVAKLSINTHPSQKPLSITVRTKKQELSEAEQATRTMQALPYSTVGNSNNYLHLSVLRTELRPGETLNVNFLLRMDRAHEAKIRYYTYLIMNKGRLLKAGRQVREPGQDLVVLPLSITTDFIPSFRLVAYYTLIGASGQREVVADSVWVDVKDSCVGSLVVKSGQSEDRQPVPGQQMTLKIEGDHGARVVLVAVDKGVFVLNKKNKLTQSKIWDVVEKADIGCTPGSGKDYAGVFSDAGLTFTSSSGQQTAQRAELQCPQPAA
Biotinylated C3b, sequence (P01024 749-1663, chain 2 of 2): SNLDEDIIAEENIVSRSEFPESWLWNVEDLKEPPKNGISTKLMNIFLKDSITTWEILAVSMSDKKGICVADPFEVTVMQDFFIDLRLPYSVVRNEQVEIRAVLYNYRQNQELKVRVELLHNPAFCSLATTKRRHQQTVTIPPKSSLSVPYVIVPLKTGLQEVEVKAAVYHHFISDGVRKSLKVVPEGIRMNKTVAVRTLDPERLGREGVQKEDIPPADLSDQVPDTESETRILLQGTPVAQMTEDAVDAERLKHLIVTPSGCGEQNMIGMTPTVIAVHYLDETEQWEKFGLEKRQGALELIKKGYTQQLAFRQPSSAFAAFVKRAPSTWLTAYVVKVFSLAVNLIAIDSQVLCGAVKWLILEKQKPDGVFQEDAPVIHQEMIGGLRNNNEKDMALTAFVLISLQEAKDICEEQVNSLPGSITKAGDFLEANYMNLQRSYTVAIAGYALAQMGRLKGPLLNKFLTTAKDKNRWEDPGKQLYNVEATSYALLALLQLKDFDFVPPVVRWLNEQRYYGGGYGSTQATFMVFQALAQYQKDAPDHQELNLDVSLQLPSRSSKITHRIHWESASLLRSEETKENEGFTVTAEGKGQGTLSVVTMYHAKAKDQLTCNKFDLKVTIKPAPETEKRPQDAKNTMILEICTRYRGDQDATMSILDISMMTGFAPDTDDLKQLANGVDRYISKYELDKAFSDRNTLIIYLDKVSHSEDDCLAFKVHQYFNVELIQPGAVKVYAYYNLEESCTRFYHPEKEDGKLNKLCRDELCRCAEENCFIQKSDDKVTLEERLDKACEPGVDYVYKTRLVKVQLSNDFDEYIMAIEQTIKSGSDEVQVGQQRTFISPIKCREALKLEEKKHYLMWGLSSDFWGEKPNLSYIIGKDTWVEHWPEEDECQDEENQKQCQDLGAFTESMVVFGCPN

B1: FPht Q343R (complex)
chain 1: DPVLCFTQYEESSGKCKGLLGGGVSVEDCCLNTAFAYQKRSGGLCQPCRSPRWSLWSTWAPCSVTCSEGSQLRYRRCVGWNGQCSGKVAPGTLEWQLQACEDQQCCPEMGGWSGWGPWEPCSVTCSKGTRTRRRACNHPAPKCGGHCPGQAQESEACDTQQVCPTHGAWATWGPWTPCSASCHGGPHEPKETRSRKCSAPEPSQKPPGKPCPGLAYEQRRCTGLPPCP
chain 2: VAGGWGPWGPVSPCPVTCGLGQTMEQRTCNHPVPQHGGPFCAGDATRTHICNTAVPCPVDGEWDSWGEWSPCIRRNMKSISCQEIPGRQSRGRTCRGRKFDGHRCAGQQQDIRHCYSIQHCPLKGSWSEWSTWGLCMPPCGPNPTRARQRLCTPLLPKYPPTVSMVEGQGEKNVTFWGRPLPRCEELQGQKLVVEEKRPCLHVPACKDPEEEEL
As for B1, the Kd came out at 4 µM.

B2: FPht Y414D (complex)
chain 1: B1 chain 1
chain 2: B1 chain 2 with R88Q, Y159D
The molecule B2 returned a Kd of 5 µM.
